Experimental findings from PMC9872521 are described below.

Usually Km stands for the concentration of substrate that gives half-maximal velocity.

Substrate in the data set: NCCc1ccc(O)c(O)c1
Nature of the data set: cells, lysate or membranes. The settings on record: sodium inward-facing conformation favors substrates.

B1: human dopamine transporter (hDAT) (Homo sapiens) (protein)
chain: MSKSKCSVGLMSSVVAPAKEPNAVGPKEVELILVKEQNGVQLTSSTLTNPRQSPVEAQDRETWGKKIDFLLSVIGFAVDLANVWRFPYLCYKNGGGAFLVPYLLFMVIAGMPLFYMELALGQFNREGAAGVWKICPILKGVGFTVILISLYVGFFYNVIIAWALHYLFSSFTTELPWIHCNNSWNSPNCSDAHPGDSSGDSSGLNDTFGTTPAAEYFERGVLHLHQSHGIDDLGPPRWQLTACLVLVIVLLYFSLWKGVKTSGKVVWITATMPYVVLTALLLRGVTLPGAIDGIRAYLSVDFYRLCEASVWIDAATQVCFSLGVGFGVLIAFSSYNKFTNNCYRDAIVTTSINSLTSFSSGFVVFSFLGYMAQKHSVPIGDVAKDGPGLIFIIYPEAIATLPLSSAWAVVFFIMLLTLGIDSAMGGMESVITGLIDEFQLLHRHRELFTLFIVLATFLLSLFCVTNGGIYVFTLLDHFAAGTSILFGVLIEAIGVAWFYGVGQFSDDIQQMTGQRPSLYWRLCWKLVSPCFLLFVVVVSIVTFRPPHYGAYIFPDWANALGWVIATSSMAMVPIYAAYKFCSLPGSFREKLAYAIAPEKDRELVDRGEVRQFTLRHWLKV
With B1, the Km came out at 2.31 µM.
